In the supplement of paper PMC9112550, “Optimization of the antimicrobial peptide Bac7 by deep mutational scanning” (BMC Biology, 2022):

Test system: Escherichia coli TOP10
Experiment: shrunken log2 fold change of peptide-encoding DNA abundance (4.5 h post-induction vs induction); higher = less antimicrobial activity (less host growth inhibition)
Conditions: time post-induction: 4.5 h; library: site-saturation at positions 5, 18, 19, 20
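Note: peptides expressed intracellularly from a pBAD plasmid library in pooled LB shake-flask culture, induced with 0.3% L-arabinose, DNA abundance read by NGS, three biological replicates, DESeq2 with apeglm shrinkage.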

Row | Sequence | shrunken log2 fold change
1 | RRIRVRPPRLPRPRPRPWHLPRP | -0.191
2 | RRIRRRPPRLPRPRPRPNDEPRP | -0.0407
3 | RRIRIRPPRLPRPRPRPLMPPRP | 1.27
4 | RRIRVRPPRLPRPRPRPQYTPRP | -0.526
5 | RRIRVRPPRLPRPRPRPPDGPRP | 0.422
6 | RRIRFRPPRLPRPRPRPANMPRP | 0.321
7 | RRIRMRPPRLPRPRPRPGCRPRP | 1.22
8 | RRIRIRPPRLPRPRPRPASLPRP | -0.0288
9 | RRIRIRPPRLPRPRPRPKAPPRP | -0.0151
10 | RRIRYRPPRLPRPRPRPTQEPRP | 0.0039
11 | RRIRYRPPRLPRPRPRPTRGPRP | 0.543
12 | RRIRHRPPRLPRPRPRPTPCPRP | 0.00473
13 | RRIRLRPPRLPRPRPRPAPRPRP | 0.816
14 | RRIRARPPRLPRPRPRPEVGPRP | 1.42
15 | RRIRKRPPRLPRPRPRPRQMPRP | 0.0035
16 | RRIRCRPPRLPRPRPRPHDQPRP | 0.0433
17 | RRIRRRPPRLPRPRPRPHCIPRP | 0.0457
18 | RRIRVRPPRLPRPRPRPQSRPRP | 0.0616
19 | RRIRERPPRLPRPRPRPNNMPRP | -0.713
20 | RRIRSRPPRLPRPRPRPLCHPRP | -0.157
21 | RRIRTRPPRLPRPRPRPNSVPRP | -0.0853
22 | RRIRPRPPRLPRPRPRPVFTPRP | -0.0534
23 | RRIRVRPPRLPRPRPRPKPQPRP | 0.719
24 | RRIRWRPPRLPRPRPRPRPLPRP | 0.158
25 | RRIRCRPPRLPRPRPRPMVSPRP | 0.0237

Row | Sequence | shrunken log2 fold change
26 | RRIRKRPPRLPRPRPRPQCLPRP | 0.131
27 | RRIRERPPRLPRPRPRPCSIPRP | -0.471
28 | RRIRPRPPRLPRPRPRPIFDPRP | -0.137
29 | RRIRTRPPRLPRPRPRPQFYPRP | -0.791
30 | RRIRDRPPRLPRPRPRPKHRPRP | 0.114
31 | RRIRWRPPRLPRPRPRPTINPRP | -0.303
32 | RRIRDRPPRLPRPRPRPCFQPRP | -0.0196
33 | RRIRDRPPRLPRPRPRPKLAPRP | 0.271
34 | RRIRNRPPRLPRPRPRPPVHPRP | -0.148
35 | RRIRSRPPRLPRPRPRPTVEPRP | 0.119
36 | RRIRTRPPRLPRPRPRPTWCPRP | -0.178
37 | RRIRQRPPRLPRPRPRPGYLPRP | 0.0613
38 | RRIRFRPPRLPRPRPRPLAVPRP | 0.249
39 | RRIRYRPPRLPRPRPRPSLHPRP | -0.622
40 | RRIRSRPPRLPRPRPRPTNRPRP | -0.362
41 | RRIRVRPPRLPRPRPRPNFMPRP | 0.0796
42 | RRIRYRPPRLPRPRPRPSDWPRP | -0.152
43 | RRIRGRPPRLPRPRPRPPVGPRP | 0.579
44 | RRIRRRPPRLPRPRPRPFQMPRP | -0.138
45 | RRIRLRPPRLPRPRPRPNKMPRP | -0.158
46 | RRIRCRPPRLPRPRPRPMSRPRP | 0.0291
47 | RRIRNRPPRLPRPRPRPPNAPRP | 0.313
48 | RRIRSRPPRLPRPRPRPEIWPRP | 0.456
49 | RRIRVRPPRLPRPRPRPAIAPRP | 0.107
50 | RRIRARPPRLPRPRPRPVQWPRP | 0.546

Row | Sequence | shrunken log2 fold change
51 | RRIRVRPPRLPRPRPRPCKMPRP | -0.159
52 | RRIRIRPPRLPRPRPRPVIAPRP | -0.388
53 | RRIRGRPPRLPRPRPRPKEFPRP | -0.0157
54 | RRIRARPPRLPRPRPRPIRSPRP | -0.129
55 | RRIRTRPPRLPRPRPRPEMHPRP | -0.149
56 | RRIRWRPPRLPRPRPRPPGYPRP | 0.684
57 | RRIRMRPPRLPRPRPRPVNDPRP | -0.00185
58 | RRIRLRPPRLPRPRPRPIAKPRP | -0.305
59 | RRIRDRPPRLPRPRPRPRHWPRP | 0.548
60 | RRIRLRPPRLPRPRPRPCNMPRP | 0.0385
61 | RRIRWRPPRLPRPRPRPCYAPRP | -0.345
62 | RRIRCRPPRLPRPRPRPLHFPRP | -0.131
63 | RRIRVRPPRLPRPRPRPSQFPRP | -0.952
64 | RRIRARPPRLPRPRPRPTSCPRP | -0.15
65 | RRIRYRPPRLPRPRPRPAMAPRP | 0.0187
66 | RRIRSRPPRLPRPRPRPVWAPRP | 0.67
67 | RRIRRRPPRLPRPRPRPFHHPRP | -0.0883
68 | RRIRERPPRLPRPRPRPHYCPRP | -0.0425
69 | RRIRYRPPRLPRPRPRPQMQPRP | -0.794
70 | RRIRARPPRLPRPRPRPWHCPRP | -0.16
71 | RRIRPRPPRLPRPRPRPHSSPRP | -0.171
72 | RRIRYRPPRLPRPRPRPWIFPRP | -0.505
73 | RRIRDRPPRLPRPRPRPLPRPRP | 0.391
74 | RRIRGRPPRLPRPRPRPSIIPRP | 0.211
75 | RRIRKRPPRLPRPRPRPACFPRP | -0.0348
